Test results as given in publication PMC10341166, “The Src-Family Kinases SRC and BLK Contribute to the CLDN6-Adhesion Signaling” (Cells, 2023).

Columns and labels:
[1] = target: T1, recGST-SRC (full-length recombinant SRC, Sf9) (mouse, UniProt P05480 1-535); assay: pull-down; GST pull-down: 10 µg recGST, recBLK-FLAG or recSRC bound to Glutathione-Superflow Resin, incubated with 3 µg recCLDN6C for 1 h at room temperature; washed five times in 140 mM NaCl, 10 mM Na2HPO4, 1.8 mM KH2PO4, pH 7.5; immunoblot; conditions: both partners purified
T1 construct: proto-oncogene tyrosine-protein kinase SRC, mouse, full-length; Src-FLAG subcloned into plEx/Bac-4; also called recSRC; source: Sf9 insect cells, transfected, purified (GST-tagged protein purification kit)

[2] = target: T2, recGST-BLK (full-length recombinant BLK, Sf9) (mouse, UniProt P16277 1-499); assay: as above; conditions: both partners purified
T2 construct: tyrosine-protein kinase BLK, mouse, full-length; Blk-FLAG subcloned into plEx/Bac-4; also called recBLK; recBLK-FLAG; source: Sf9 insect cells, transfected, purified (GST-tagged protein purification kit)
T2 sequence (P16277 whole entry): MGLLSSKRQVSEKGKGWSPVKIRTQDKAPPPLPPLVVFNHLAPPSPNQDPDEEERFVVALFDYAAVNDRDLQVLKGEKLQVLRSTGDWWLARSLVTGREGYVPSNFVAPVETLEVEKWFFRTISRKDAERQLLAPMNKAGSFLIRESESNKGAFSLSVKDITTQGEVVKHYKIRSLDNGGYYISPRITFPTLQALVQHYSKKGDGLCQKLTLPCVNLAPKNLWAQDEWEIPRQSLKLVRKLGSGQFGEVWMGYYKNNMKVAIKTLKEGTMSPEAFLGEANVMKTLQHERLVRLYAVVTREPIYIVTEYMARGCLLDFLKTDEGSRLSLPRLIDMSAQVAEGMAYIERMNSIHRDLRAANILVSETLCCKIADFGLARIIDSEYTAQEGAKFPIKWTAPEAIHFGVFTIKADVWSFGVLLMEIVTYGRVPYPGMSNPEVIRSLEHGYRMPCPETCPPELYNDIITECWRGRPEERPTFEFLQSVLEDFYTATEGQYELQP

binding result [1]: binds | binding result [2]: binds
B1: recCLDN6C (recombinant C-terminal cytoplasmic domain of CLDN6, C185-V219) (domain or fragment, mouse, UniProt Q9Z262 185-219, looked up)
chain: CSSGGTQGPRHYMACYSTSVPHSRGPSEYPTKNYV
notes: claudin-6 (CLDN6), mouse, C-terminus C185-V219; source: recombinant, from plEx/Bac-4
